Numbered stars: 1 amine (or outer) side, 2 acyl side, 3 side chain; on linkers, the order of the positions; unused ones are H or OH. Square brackets hold non-standard residues; d marks the D form. Side chains are listed from the residue outwards. Ends that are not written are not given here. * marks the point of attachment. C18 diacid = O=C(O)CCCCCCCCCCCCCCCCC(=O)*; γGlu = O=C(O)[C@H](CCC(=O)[*:2])N[*:1]; Iva = CC[C@](C)(N)C(=O)O; AEEA = NCCOCCOCC(=O)O; Aib = CC(C)(N)C(=O)O

2 molecules from patent US20240360194A1, “New Peptides as Potent and Selective GIP Receptor Agonists” (Sanofi, priority 2021, published 2024) can be followed below.

Test [1] deals with T1, human GIP receptor (human), P48546.
T1 chain: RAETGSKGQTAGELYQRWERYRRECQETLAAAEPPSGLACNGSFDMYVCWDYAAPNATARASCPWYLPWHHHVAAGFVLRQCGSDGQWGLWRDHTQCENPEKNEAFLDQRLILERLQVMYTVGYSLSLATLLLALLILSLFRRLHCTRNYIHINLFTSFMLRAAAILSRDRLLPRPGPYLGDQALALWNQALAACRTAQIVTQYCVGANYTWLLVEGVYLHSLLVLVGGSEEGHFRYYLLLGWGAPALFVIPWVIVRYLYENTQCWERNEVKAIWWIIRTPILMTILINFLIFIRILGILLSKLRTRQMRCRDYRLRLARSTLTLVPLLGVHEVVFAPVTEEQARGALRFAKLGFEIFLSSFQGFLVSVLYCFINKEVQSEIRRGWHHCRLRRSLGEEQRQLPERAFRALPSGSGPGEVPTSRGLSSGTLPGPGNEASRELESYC
As to the kind of experiment: cell-based or functional assay.

Test [2] shares this target. As to the kind of experiment: displacement of [125I]GIP from HEK-293 membranes expressing hGIPR (SPA beads). A general note: Displacement assays read how much labelled ligand stays bound in the presence of the test substance.
Test [3] addresses T2, human GLP-1 receptor (human), P43220.
T2 chain: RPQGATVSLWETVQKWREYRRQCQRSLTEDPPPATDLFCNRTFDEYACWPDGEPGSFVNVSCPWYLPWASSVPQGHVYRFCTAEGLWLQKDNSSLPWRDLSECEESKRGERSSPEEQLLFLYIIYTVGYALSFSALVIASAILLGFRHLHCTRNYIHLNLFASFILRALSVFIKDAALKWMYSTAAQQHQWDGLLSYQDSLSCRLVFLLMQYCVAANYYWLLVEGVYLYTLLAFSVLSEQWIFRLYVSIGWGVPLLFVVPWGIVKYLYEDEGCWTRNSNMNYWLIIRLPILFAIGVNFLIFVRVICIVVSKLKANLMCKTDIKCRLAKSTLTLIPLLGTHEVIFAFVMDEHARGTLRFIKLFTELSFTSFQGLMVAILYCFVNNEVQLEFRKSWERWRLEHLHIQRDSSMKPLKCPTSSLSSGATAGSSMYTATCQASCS
As to the kind of experiment: displacement of [125I]GLP-1 from HEK-293 membranes expressing hGLP-1R (SPA beads).

The target of test [4] is T3, human GIP receptor (human, UniProt P48546 22-466).
T3 sequence (looked up): T1 chain
As to the kind of experiment: cell-based or functional assay.

In test [5] the target is T4, human GLP-1 receptor (human, UniProt P43220 24-463). As to the kind of experiment: cell-based or functional assay.
The target of test [6] is T3, human GIP receptor. Nature of the test: cell-based or functional assay. The source holds these as a separate data set.
The target in test [7] is T3, human GIP receptor. Nature of the test: displacement of [125I]GIP from HEK-293 membranes expressing hGIPR (SPA beads).
Test [8] addresses T4, human GLP-1 receptor. As to the kind of experiment: displacement of [125I]GLP-1 from HEK-293 membranes expressing hGLP-1R (SPA beads).

B1: SEQ ID NO: 38 (peptide)
peptide: Y[Aib]EGTFISDLSI[Aib]LEEQKQ[Aib]EFIEWLLAQGPSSGEPPPS-NH2
Broadly, the IC50 is the midpoint of a concentration-inhibition curve. Read a low IC50 as greater potency. Turning to B1, in test [1], the EC50 hGIPR 0% HSA (cAMP, HEK-293) was determined as 0.19 pM; the EC50 hGIPR 0.1% BSA (cAMP, HEK-293) was 53.1 pM; the hGIPR EC50 (cAMP, human adipocytes) amounted to 0.4 nM; the hGIPR Emax (cAMP, human adipocytes) turned out to be 92%. The same molecule came in with an IC50 in test [2] of 0.2 nM. The molecule further returned a concentration for half-maximal inhibition (IC50) in test [3] of 73 nM.

B2: SEQ ID NO: 24 (peptide)
peptide: H-Y[Aib]EGT[Iva]ISDLSI[Aib]K([AEEA-AEEA-γGlu-C18 diacid])DRIHQEEFIEWLLAQGPSSGAPPPS-NH2
notes: Synthetic peptide, 39 residues
For the molecule B2, in the test with human GIP receptor [4], the “EC50 hGIPR 0% HSA (cAMP, HEK-293)” value was 0.56 pM and the “EC50 hGIPR 0.1% BSA (cAMP, HEK-293)” value stood at 36.6 pM. Moreover, the “EC50 hGLP-1R 0.1% BSA (cAMP, HEK-293)” value with human GLP-1 receptor [5] is over 10 nM. Further, in the test with human GIP receptor [6], the “hGIPR EC50 (cAMP, human adipocytes)” value was 0.2 nM and the “hGIPR Emax (cAMP, human adipocytes)” value stood at 100%. This molecule also came in with an IC50 with human GIP receptor [7] of 0.1 nM. Besides, in the test with human GLP-1 receptor [8], the half-maximal inhibitory concentration (IC50) stood at 188 nM.
